Our source for the protein production values is a protein production outcome set (Wang et al. 2014).

The nature of the data set: label from the status in PepcDB records.
“MKKLMITQEAGVATVLIKNPPVNILTIDLINELNAFILSLKDDRETKVVVFKSFHEAFFIAHLDLNVINGTSGGQAASIEFNHMIANIKAMKQLSIAVVDGVARGGGNEFVMACDLAYGTENSAFAQPELYINIPTGGQGAVQFARRLGKGKALQALLTGADFTAQQAETLNIITQFVLKAELDVFLAQLLSVIVGWEIRDIVMYKEIIAASIKDEAVGTELELRYFLERAREEKTQTIIAAFLKHGGQTEREAKDMQGIFVDTAAELSK”: the protein production result is listed as “failed”.
In the case of “MKKLPLVFSGCLLGLAGAGNLILDTLPVLSHLFSLIGLVLWIYFLILHLFNWKETKQELTKPPLLSGMATFPMAGMILSTYVFRVFSYLPLVAQGIWWFSFLLDLTLIAGFTIKFACPGRRVHATPSWTVLYVGIAVAALTYPLVGIIEIAYATLSFGFLLTFYLYPLIYSDLKKHPLPLALLGQEGIYCAPFSLLLASLVRVGGTSLPTWVLIVMILASQSFFFFVLTRLPNILKQGFQPAFSALTFPTIITATSLKMAQGILKLPFLDYLVLAETIICLTILFFVLGAYLIWLRKKV” it was “failed”.
Turning to “MKKLSGIIVLLLAGAALYLALKTSPIDPLAWDAPAAPQMTGVLEPNDTLMKAELLGQGQLHGPEDTAVDSQGRVYAGLADGRVVRLDASGKVETFVDTGGRPLGMDFDAAGNLILADAWKGLLRIDPQGKVETLATEADSVPFAFTDDLDIASDGRIYFSDASSKFHQPDYILDLLEARPHGRLLRYDPSTGKTEVLLKDLYFANGVALSANEDFVLVNETYRYRITRYWLKGEKAGQHEVFIDNLPGLPDNLQGDRKGTFWVALPTPRKADADFLHRHPWLKAQLAKLPRMFLPKPTAYGLVIAIDEQGRIVRSLHDTSGHHLRMITSAKPVGDQLYFGSLENDRIGRLAIPLEHHHHHH”, the protein production result is listed as “not failed”.
For the sequence “MKKLVLTGAAGRLGSYLREPLTALCDTLVSTDIVDDIGTLYAGETYVKADLAQMDQIAPVLEGADMVVHFGAIVDEKPFEELLGPNFVGSYNIWEAGYKAGVKRIVYASSIHAVGMHLKSDFIGIDAEHRPDTFYGLAKCFTEDLGRMYWDKRGLESVHLRILSCAQVNNTRALGSWLSYPDLIQLVTRAIDTPSVGFSIIYGVSNNDRAPVDNAKASFLGYRPIDNAEVYAAEVLAQAEPVDTTDPGQMCHGGPFAKVDLGQSGLAQMNVVNDKKQT”, the protein production result is “failed”.
For “MKKPSSTPAPRLASLDILRGFDLFLLVFFQPVLWTLAHQLNLPWLNSILFQFDHEVWEGFRFWDLVMPLFLFMTGASMPFSFSKFKDNPDKGPVYRKIIKRFILLFIFGMIVQGNLLGLDPKHLYLYSNTLQAIATGYLIAAIIQLHCNFRWQLIVTALLLLIYWIPMTFLGDFTPEGNFAEKVDRLVLGHFRDGVFWNEDGSWSFSAHYNYTWIWSSLTFGATVMLGAFAGKIMKAGKDNRRKVVQTLLIIGISLIAFSLIWSLQMPIIKRLWTSSMTLFSGGLCFLLMGAFYYRIDYKGHSRGLNWLKIYGMNSITAYILGEVINFRCIAASVSYGLEQYLGGYYQVWLSFANYLIVFLILRIMYRQKIFLKI”, the protein production entry is given as “failed”.
“MKKQELIHLHGLLAQVQNHYEAESGTEVDHDEYEELGVKPTSIHKSKTDHKAAVFAIADGIASEMADETKEPVSAAADLEHHHHHH”: the protein production entry is given as “not failed”.
As for “MKKQSLVATSLLAAFITGACTADTNIQAKPIVSQVKAKKLIKPNVLFIAVDDLRVQYGPYDFDKAITPNIDRLVNQGVAFTQAYSNVPVCGASRASMLTGVRPTINRFVAFESADKVAPWAPSIAKVFSDNGYTTYSLGKIFNNLTDHANDWSEFPWRPEGAKNEDSTSGNKKQASLLSRHDYVTSDGVAMAKKGIKNHPAFEKADVVDDAYKNGKIAKRAISDLKRLKKAGKPFFLAVGLKKPHLPFNAPSKYWDLYDESTIELTKIPLKAKDSPSQSDHNWNELRNYGHDGAMPKKGKMSDEMARKLIHGYHAATSYSDALIGNILTELESLGLEENTIVVLWGDHGWSLGEHTHWAKHSSYDVTNHIPLIIKVPGMTNGEFSKGLVESVDIFPTLTQLAGLPAPSSLQGDSLVPMLKNPQATVNDAVYPRWKNADSIRTPNYMYTEWRNKKNNKVIARMLFDHRVDPRETINVAENFKYAQVVVDLHNQLAAHIAQVEK”, the protein production result is given as “failed”.
